Laboratory results from PMC12431671, “Receptor transporter protein 4 (RTP4)-mediated repression of hepatitis C virus replication in mouse cells” (PLOS Pathogens, 2025).

Target: T1, HCV NS5A protein (hepatitis C virus J6/JFH1-Jc1, UniProt Q99IB8 1977-2442)
T1 construct: NS5A, cut product of the polyprotein of hepatitis C virus J6/JFH1 (Jc1) chimeric genome; Untagged viral protein, detected with the mouse anti-NS5A antibody 9E10 (a tool); NS5A is a stretch of it; source: made by HCV J6/JFH1-Jc1 infection (MOI of 1) of Huh7-Lunet cells, in fixed cells
T1 sequence: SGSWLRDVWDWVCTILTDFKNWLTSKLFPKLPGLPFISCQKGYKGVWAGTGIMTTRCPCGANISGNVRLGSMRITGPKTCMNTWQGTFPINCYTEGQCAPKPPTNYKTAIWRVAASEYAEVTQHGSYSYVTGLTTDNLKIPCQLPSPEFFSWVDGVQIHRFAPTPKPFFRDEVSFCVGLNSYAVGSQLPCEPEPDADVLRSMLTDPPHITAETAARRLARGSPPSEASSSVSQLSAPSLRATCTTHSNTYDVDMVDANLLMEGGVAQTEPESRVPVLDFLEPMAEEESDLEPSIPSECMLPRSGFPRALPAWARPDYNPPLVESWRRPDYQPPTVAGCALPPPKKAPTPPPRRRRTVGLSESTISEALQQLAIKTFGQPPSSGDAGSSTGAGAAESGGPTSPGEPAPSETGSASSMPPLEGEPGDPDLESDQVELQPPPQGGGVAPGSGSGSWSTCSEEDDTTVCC
Experiment: proximity ligation; in situ PLA (Duolink In Situ Detection Reagents Green) in Huh7-Lunet cells infected with HCV J6/JFH1-Jc1 at MOI 1, transduced with FLAG-mmRTP4 or FLAG-hsRTP4 lentivirus, fixed in methanol 48 h post-transduction; Anti-Rabbit MINUS and Anti-Mouse PLUS probes; foci counted in 10 images per sample
Conditions: partners not purified

B1: FLAG-tagged murine receptor transporter protein 4 (FLAG-mmRTP4) (natural protein)
chain: MLFPDDFSTWEQTFQELMQEEKPGAKWSLHLDKNIVPDGAALGWRQHQQTVLGRFQCSRCCRSWTSAQVMILCHMYPDTLKSQGQARMRIFGQKCQKCFGCQFETPKFSTEIIKRILNNLVNYILQRYYGHRKIALTSNASLGEKVTLDGPHDTRNCEACSLNSHGRCALAHKVKPPRSPSPLPKSSSPSKSCPPPPQTRNTDFGNKTFQDFGNRTFQGCREPPQREIEPPLFLFLSIAAFALFSLFTR
notes: Receptor transporter protein 4 (RTP4), mouse; also called mouse RTP4; murine RTP4; source: Huh7-Lunet cells, lentivirally transduced (pLVX), HCV-infected, in fixed cells; not shown: FLAG, N-terminal, kept
Q: For B1, which “frequency of PLA foci relative to FLAG-hsRTP4 with NS5A” value is on record?
A: The value was 2 fold.
